From PMC6450523, “Substrate-analogue complex structure of Mycobacterium tuberculosis decaprenyl diphosphate synthase” (Acta Crystallographica. Section F, Structural Biology …, 2019)

Target: the molecule itself
Assay: crystal structure; sitting-drop vapour diffusion at 25°C, 0.1 M HEPES pH 7.5, 10% glycerol, 25% PEG 400, 7% PEG 3000; crystals soaked with 1 mM ISPP and 1 mM GSPP for 6 h; 1.55 Å, space group P212121, one dimer in the asymmetric unit

B1: Decaprenyl diphosphate synthase from Mycobacterium tuberculosis (enzyme)
chain: MARDARKRTSSNFPQLPPAPDDYPTFPDTSTWPVVFPELPAAPYGGPCRPPQHTSKAAAPRIPADRLPNHVAIVMDGNGRWATQRGLARTEGHKMGEAVVIDIACGAIELGIKWLSLYAFSTENWKRSPEEVRFLMGFNRDVVRRRRDTLKKLGVRIRWVGSRPRLWRSVINELAVAEEMTKSNDVITINYCVNYGGRTEITEATREIAREVAAGRLNPERITESTIARHLQRPDIPDVDLFLRTSGEQRSSNFMLWQAAYAEYIFQDKLWPDYDRRDLWAACEEYASRTRRFGSA
notes: also called MtDPPS; Rv2361c
For B1, the “stoichiometry N” value was 2.
